The values below come from PMC5865128 (Nature Communications, 2018).

Positions count from the first letter of the chain named.

Assay [1] deals with naturally cleaved, untagged human BAFF H218A (human). Briefly: SEC; concentrated 293 T supernatants of naturally cleaved BAFF fractionated on Superdex 200 Increase; fractions blotted with anti-BAFF antibodies; oligomer seen in the fractions. (SEC sorts molecules by how far they enter the pores of the column.)
Assay [2] deals with naturally cleaved, untagged human BAFF E223K (human). The description is as above.
The target in assay [3] is His-tagged human BAFF (60-mer) (human) (UniProt Q9Y275). Put plainly: SEC; purified His-tagged BAFF alone on Superdex 200 Increase, against molecular weight standards.
For a further assay, the target named is T1, Fc-human BAFF, wild type (human, UniProt Q9Y275).
T1 construct: human BAFF (TNFSF13B); called an intrinsically cross-linked BAFF; also called Fc-hBAFF WT; Fc-BAFF
Put plainly: ELISA; Fc-hBAFF (WT or H218A) coated at 1 µg/ml; soluble Fc-BAFF (WT or H218A) titrated, then biotinylated Fab of belimumab (50 µl of 100 ng/ml); streptavidin-peroxidase detection; relative affinity. The settings on record: both partners purified.

Assay [4] deals with T2, FLAG-tagged mouse BAFF 3-mer, wild type (mouse, UniProt Q9WU72 127-309).
T2 construct: mouse BAFF (Tnfsf13b), soluble form; also called FLAG-mBAFF WT; mBAFF; source: 293 T cells, transient transfection, supernatant, size fractionated by gel filtration (3-mer fractions 13 + 14)
Briefly: ELISA; direct binding: BAFFR-Fc, BCMA-Fc or TACI-Fc (human or mouse) adsorbed at 1 µg/ml; FLAG-tagged BAFF 3-mers of the corresponding species 1 h at 37 °C in PBS, 0.4% milk, 0.05% Tween-20; biotinylated anti-FLAG detection. The settings on record: both partners purified.

Assay [5] concerns the target T3, FLAG-tagged mouse BAFF 3-mer, H242A (mouse, UniProt Q9WU72 127-309, H242A).
T3 construct: mouse BAFF (Tnfsf13b), soluble form; also called FLAG-mBAFF H242A; source: 293 T cells, transient transfection, supernatant, size fractionated by gel filtration (3-mer fractions 13 + 14)
T3 sequence (looked up): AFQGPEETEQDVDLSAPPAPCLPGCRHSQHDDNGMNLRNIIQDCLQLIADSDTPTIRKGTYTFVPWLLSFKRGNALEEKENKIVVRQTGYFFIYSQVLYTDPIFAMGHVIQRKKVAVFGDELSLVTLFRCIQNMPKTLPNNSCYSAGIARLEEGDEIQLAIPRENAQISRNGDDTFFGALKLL
The description is as above. The settings on record: both partners purified.

Assay [6] concerns the target T4, FLAG-tagged mouse BAFF 3-mer, E247K (mouse, UniProt Q9WU72 127-309, E247K).
T4 construct: mouse BAFF (Tnfsf13b), soluble form; also called FLAG-mBAFF E247K; source: 293 T cells, transient transfection, supernatant, size fractionated by gel filtration (3-mer fractions 13 + 14)
T4 sequence (looked up): T3 sequence (looked up) with A116H, E121K
Described as above. Particulars: both partners purified.

In assay [7] the target is T5, FLAG-tagged human BAFF 3-mer, H218A (human, UniProt Q9Y275 134-285, H218A).
T5 construct: human BAFF (TNFSF13B), soluble form; also called FLAG-hBAFF H218A; source: 293 T cells, transient transfection, supernatant, size fractionated by gel filtration (3-mer fractions 15 + 16)
The assay is described as above. Particulars: both partners purified.

Assay [8] has as its target T6, FLAG-tagged human BAFF 3-mer, E223K (human, UniProt Q9Y275 134-285, E223K).
T6 construct: human BAFF (TNFSF13B), soluble form; also called FLAG-hBAFF E223K; source: 293 T cells, transient transfection, supernatant, size fractionated by gel filtration (3-mer fractions 15 + 16)
The description is as above. The settings on record: both partners purified.

Consider “naturally cleaved, untagged human BAFF H218A (ligand)”, for which, in [1], the stoichiometry N (as a rule, the number of molecules, sites or subunits per partner or assembly) stood at 3.

In assay [2], “naturally cleaved, untagged human BAFF E223K (ligand)” registered a stoichiometry N of 3.

In turn, “His-tagged human BAFF (60-mer) (from UniProt Q9Y275 134-285) (ligand)” yielded a stoichiometry N in [3] of 60.

B1: Fab fragment of belimumab (Fab, V domains shown)
VH: QVQLQQSGAEVKKPGSSVRVSCKASGGTFNNNAINWVRQAPGQGLEWMGGIIPMFGTAKYSQNFQGRVAITADESTGTASMELSSLRSEDTAVYYCARSRDLLLFPHHALSPWGRGTMVTVSS
VL: SSELTQDPAVSVALGQTVRVTCQGDSLRSYYASWYQQKPGQAPVLVIYGKNNRPSGIPDRFSGSSSGNTASLTITGAQAEDEADYYCSSRDSSGNHWVFGGGTELTVL
notes: heavy-chain part of the Fab; as the light chain of m24; also called belimumab Fab; source: papain digestion of belimumab, flowthrough of Protein A, size-fractionated (Superdex 200 Increase)
For B1, the binding result with Fc-human BAFF, wild type is on record as “binds”.

B2: mouse BAFFR-Fc (Fc fusion, UniProt Q9D8D0 1-71, looked up)
chain: MGARRLRVRSQRSRDSSVPTQCNQTECFDPLVRNCVSCELFHTPDTGHTSSLEPGTALQPQEGSALRPDVA
notes: mouse BAFF receptor (BAFFR); also called mBAFFR-Fc
With B2, the binding result in assay [4], in [5] and in assay [6] was “binds” throughout.

B3: mouse TACI-Fc (Fc fusion, UniProt Q9ET35 1-128, looked up)
chain: MAMAFCPKDQYWDSSRKSCVSCALTCSQRSQRTCTDFCKFINCRKEQGRYYDHLLGACVSCDSTCTQHPQQCAHFCEKRPRSQANLQPELGRPQAGEVEVRSDNSGRHQGSEHGPGLRLSSDQLTLYC
notes: mouse TACI
On to B3, for which the binding result in assay [4], in assay [5] and in assay [6] was “binds” throughout.

Regarding MAQQCFHSEYFDSLLHACKPCHLRCSNPPATCQPYCDPSVTSSVKGTYT (Fc fusion, UniProt O88472 1-49, looked up, mouse BCMA) [mouse BCMA-Fc], the binding result in [4], in [5] and in assay [6] was “binds” each time.

B4: human BCMA-Fc (Fc fusion, UniProt Q02223 1-54, looked up)
chain: MLQMAGQCSQNEYFDSLLHACIPCQLRCSSNTPPLTCQRYCNASVTNSVKGTNA
notes: human BCMA (TNFRSF17); also called TNFRSF17
On to B4, for which the binding result in assay [7] and in assay [8] was “binds” each time.
